From patent US20160058881A1, “PRODRUGS WITH PROLONGED ACTION” (INDIANA UNIVERSITY RESEARCH AND TECHNOLOGY CORPORATION, priority 2013, published 2016)
Positions of bridges follow the written chain, without caps; N, C: chain ends. Non-standard residues stand in square brackets, D forms with d. Groups on a side chain read outwards from the residue. No end group written: not given here. *: point of attachment. Docosanoyl = CCCCCCCCCCCCCCCCCCCCCC(=O)*; Phe(4-NH2) = Nc1ccc(C[C@H](N)C(=O)O)cc1; PhLac = O=C(O)[C@@H](O)Cc1ccccc1; Aib = CC(C)(N)C(=O)O; C20 = C20 acyl group; Sar = CNCC(=O)O

B1: [A2E3, E16K20(Lactam), D28]G(1~29) (Table 2 peptide 8) (peptide)
peptide: HAEGTFTSEYSKYLDERRAKDFVQWLMDT-NH2
modifications: lactam 16-20; N-terminus assumed
SMILES: CSCC[C@H](NC(=O)[C@H](CC(C)C)NC(=O)[C@H](Cc1c[nH]c2ccccc12)NC(=O)[C@H](CCC(N)=O)NC(=O)[C@@H](NC(=O)[C@H](Cc1ccccc1)NC(=O)[C@H](CC(=O)O)NC(=O)[C@@H]1CCCCNC(=O)CC[C@H](NC(=O)[C@H](CC(=O)O)NC(=O)[C@H](CC(C)C)NC(=O)[C@H](Cc2ccc(O)cc2)NC(=O)[C@H](CCCCN)NC(=O)[C@H](CO)NC(=O)[C@H](Cc2ccc(O)cc2)NC(=O)[C@H](CCC(=O)O)NC(=O)[C@H](CO)NC(=O)[C@@H](NC(=O)[C@H](Cc2ccccc2)NC(=O)[C@@H](NC(=O)CNC(=O)[C@H](CCC(=O)O)NC(=O)[C@H](C)NC(=O)[C@@H](N)Cc2c[nH]cn2)[C@@H](C)O)[C@@H](C)O)C(=O)N[C@@H](CCCNC(=N)N)C(=O)N[C@@H](CCCNC(=N)N)C(=O)N[C@@H](C)C(=O)N1)C(C)C)C(=O)N[C@@H](CC(=O)O)C(=O)N[C@H](C(N)=O)[C@@H](C)O
B2: Peptide D (parent peptide, lacking acylation and lacking a dipeptide prodrug moiety) (peptide)
peptide: F[Aib]EGTFTSD[Phe(4-NH2)]SIYLDKQAA[Aib]EFVNWLLAGGPSSGAPPPS-NH2
modifications: N-terminus assumed
SMILES: CC[C@H](C)[C@H](NC(=O)[C@H](CO)NC(=O)[C@H](Cc1ccc(N)cc1)NC(=O)[C@H](CC(=O)O)NC(=O)[C@H](CO)NC(=O)[C@@H](NC(=O)[C@H](Cc1ccccc1)NC(=O)[C@@H](NC(=O)CNC(=O)[C@H](CCC(=O)O)NC(=O)C(C)(C)NC(=O)[C@@H](N)Cc1ccccc1)[C@@H](C)O)[C@@H](C)O)C(=O)N[C@@H](Cc1ccc(O)cc1)C(=O)N[C@@H](CC(C)C)C(=O)N[C@@H](CC(=O)O)C(=O)N[C@@H](CCCCN)C(=O)N[C@@H](CCC(N)=O)C(=O)N[C@@H](C)C(=O)N[C@@H](C)C(=O)NC(C)(C)C(=O)N[C@@H](CCC(=O)O)C(=O)N[C@@H](Cc1ccccc1)C(=O)N[C@H](C(=O)N[C@@H](CC(N)=O)C(=O)N[C@@H](Cc1c[nH]c2ccccc12)C(=O)N[C@@H](CC(C)C)C(=O)N[C@@H](CC(C)C)C(=O)N[C@@H](C)C(=O)NCC(=O)NCC(=O)N1CCC[C@H]1C(=O)N[C@@H](CO)C(=O)N[C@@H](CO)C(=O)NCC(=O)N[C@@H](C)C(=O)N1CCC[C@H]1C(=O)N1CCC[C@H]1C(=O)N1CCC[C@H]1C(=O)N[C@@H](CO)C(N)=O)C(C)C
B3: [E9, E16K20(lactam), D28]G(4~29) (Table 2 peptide 5) (peptide)
peptide: GTFTSEYSKYLDERRAKDFVQWLMDT-NH2
modifications: lactam 13-17; N-terminus assumed
SMILES: CSCC[C@H](NC(=O)[C@H](CC(C)C)NC(=O)[C@H](Cc1c[nH]c2ccccc12)NC(=O)[C@H](CCC(N)=O)NC(=O)[C@@H](NC(=O)[C@H](Cc1ccccc1)NC(=O)[C@H](CC(=O)O)NC(=O)[C@@H]1CCCCNC(=O)CC[C@H](NC(=O)[C@H](CC(=O)O)NC(=O)[C@H](CC(C)C)NC(=O)[C@H](Cc2ccc(O)cc2)NC(=O)[C@H](CCCCN)NC(=O)[C@H](CO)NC(=O)[C@H](Cc2ccc(O)cc2)NC(=O)[C@H](CCC(=O)O)NC(=O)[C@H](CO)NC(=O)[C@@H](NC(=O)[C@H](Cc2ccccc2)NC(=O)[C@@H](NC(=O)CN)[C@@H](C)O)[C@@H](C)O)C(=O)N[C@@H](CCCNC(=N)N)C(=O)N[C@@H](CCCNC(=N)N)C(=O)N[C@@H](C)C(=O)N1)C(C)C)C(=O)N[C@@H](CC(=O)O)C(=O)N[C@H](C(N)=O)[C@@H](C)O

Experiments:
GLP-1 receptor [1] = molecular target: GLP-1 receptor (Homo sapiens, UniProt P43220); test: GLP-receptor luciferase bioassay of samples incubated in 20% human plasma (restored activity); format: cell-based; details: 37° C., 0 to 5 d
GLP-1 receptor (Homo sapiens, UniProt P43220), sequence (P43220 24-463): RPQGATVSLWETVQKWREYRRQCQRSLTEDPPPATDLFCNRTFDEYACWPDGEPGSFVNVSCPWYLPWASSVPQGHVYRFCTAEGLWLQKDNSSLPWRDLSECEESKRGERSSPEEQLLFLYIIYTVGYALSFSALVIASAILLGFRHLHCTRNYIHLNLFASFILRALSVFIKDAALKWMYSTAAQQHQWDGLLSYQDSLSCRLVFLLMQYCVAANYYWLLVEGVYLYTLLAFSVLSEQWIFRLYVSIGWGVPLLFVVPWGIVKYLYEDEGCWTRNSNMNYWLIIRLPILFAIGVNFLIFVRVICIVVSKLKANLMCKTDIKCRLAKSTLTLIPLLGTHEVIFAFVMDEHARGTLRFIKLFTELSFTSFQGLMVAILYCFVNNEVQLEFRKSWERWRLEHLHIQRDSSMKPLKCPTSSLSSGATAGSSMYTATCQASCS
Procedure: To explore the possible formation of DKP and simultaneous regeneration of the parent drug, the above-mentioned peptides were incubated in 20% human plasma at 37° C. for approximately 5 days. Samples were collected at different time points (0, 1, 2, and 5 days).

glucagon receptor [2] = molecular target: glucagon receptor (UniProt P47871); test: cell-based or functional assay
glucagon receptor (UniProt P47871), sequence (P47871 26-477 limits assumed): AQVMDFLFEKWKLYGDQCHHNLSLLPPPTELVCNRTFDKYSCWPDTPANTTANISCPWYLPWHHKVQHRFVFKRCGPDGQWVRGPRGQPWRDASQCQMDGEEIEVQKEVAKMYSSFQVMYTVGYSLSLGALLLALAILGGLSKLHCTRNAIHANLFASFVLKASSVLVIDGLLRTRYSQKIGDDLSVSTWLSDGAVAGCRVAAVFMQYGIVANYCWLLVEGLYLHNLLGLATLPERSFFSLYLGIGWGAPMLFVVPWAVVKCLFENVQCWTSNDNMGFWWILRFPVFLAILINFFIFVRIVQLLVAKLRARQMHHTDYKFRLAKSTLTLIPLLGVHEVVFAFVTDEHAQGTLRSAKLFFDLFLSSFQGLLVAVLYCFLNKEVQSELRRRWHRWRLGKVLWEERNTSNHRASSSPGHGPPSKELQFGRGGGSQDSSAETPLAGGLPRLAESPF

glucagon receptor [3] = molecular target: glucagon receptor (UniProt P47871); test: cell-based or functional assay; remark: listed apart in the source
GLP-1 receptor [4] = molecular target: T1, GLP-1 receptor (UniProt P43220 24-463, limits assumed); test: cell-based or functional assay
glucagon receptor [5] = molecular target: glucagon receptor (UniProt P47871 26-477, limits assumed); test: cell-based or functional assay
glucagon receptor (UniProt P47871 26-477, limits assumed), sequence (P47871 26-477 limits assumed): as above

GLP-1 receptor [6] = molecular target: T1, GLP-1 receptor; test: cell-based or functional assay; remark: listed apart in the source

Molecule | GLP-1 EC50 (GLP-1 receptor [4]) [nM] | Relative activity to GLP-1 standard, luciferase cAMP reporter assay, sample after 0 d in 20% human plasma at 37 C (GLP-1 receptor [6]) [%] | Relative activity to GLP-1 standard, luciferase cAMP reporter assay, sample after 1 d in 20% human plasma at 37 C (GLP-1 receptor [6]) [%] | Relative activity to GLP-1 standard, luciferase cAMP reporter assay, sample after 5 d in 20% human plasma at 37 C (GLP-1 receptor [6]) [%] | also measured
C22 attached directly to position 10 (non-prodrug): non-prodrug: C22-acylated lysine attached directly to the 4-amino group of phenylalanine at position 10 of Peptide D (F[Aib]EGTFTSD[Phe(4-NH2)]([Lys-Docosanoyl])SIYLDKQAA[Aib]EFVNWLLAGGPSSGAPPPS; not fully specified (C-terminus)) | – | – | – | – | Change of activity over the time points in plasma (GLP-1 receptor [1]): No change
C20 attached directly to position 10 (non-prodrug): non-prodrug: C20-acylated lysine attached directly to the 4-amino group of phenylalanine at position 10 of Peptide D (F[Aib]EGTFTSD[Phe(4-NH2)]([Lys-C20])SIYLDKQAA[Aib]EFVNWLLAGGPSSGAPPPS; not fully specified (C-terminus)) | – | – | – | – | Change of activity over the time points in plasma (GLP-1 receptor [1]): No change
E9, K12, E16 glucagon(6-39) Cex peptide (Table 1 peptide 1) | – | – | – | – | Glucagon IC50 (glucagon receptor [2]): 762 nM; Glu IC50 (glucagon receptor [3]): 762 nM
[PhLac]TSDYSKYLDERRAKDFVEWLMDT (lactam 15-19) [[PLA6, D9, E16, K20E24(Lactam), D28]G(6-29) (Table 2 peptide 3)] | 239 | – | – | – | Glucagon IC50 (glucagon receptor [5]): 74 nM
F[Aib]EGTFTSD[Phe(4-NH2)]([Lys-C22 acyl])SIYLDKQAA[Aib]EFVNWLLAGGPSSGAPPPS-NH2 (also: acylated amino group of the Lys not given here) | – | 1.8 | 2.1 | 0.4 | –
F[Aib]EGTFTSD[Phe(4-NH2)]([Sar-dK-C20 acyl])SIYLDKQAA[Aib]EFVNWLLAGGPSSGAPPPS-NH2 [Peptide D with C20 acylated (d)Lysine-sarcosine dipeptide prodrug moiety at position 10] | – | 30.9 | 37.8 | 96.9 | Restored (percent, 0 d; not defined in the filing, matches the ratio to the parent peptide at the same time) (GLP-1 receptor [6]): 36%; Restored (percent, 1 d; not defined in the filing, matches the ratio to the parent peptide at the same time) (GLP-1 receptor [6]): 45%; Restored (percent, 5 d; not defined in the filing, matches the ratio to the parent peptide at the same time) (GLP-1 receptor [6]): 133%
F[Aib]EGTFTSD[Phe(4-NH2)]([Sar-dK-C22 acyl])SIYLDKQAA[Aib]EFVNWLLAGGPSSGAPPPS-NH2 [Peptide D with C22 acylated (d)Lysine-sarcosine dipeptide prodrug moiety at position 10] | – | 30.9 | 48.2 | 63.2 | Restored (percent, 0 d; not defined in the filing, matches the ratio to the parent peptide at the same time) (GLP-1 receptor [6]): 36%; Restored (percent, 1 d; not defined in the filing, matches the ratio to the parent peptide at the same time) (GLP-1 receptor [6]): 57%; Restored (percent, 5 d; not defined in the filing, matches the ratio to the parent peptide at the same time) (GLP-1 receptor [6]): 87%
B1 | 0.2 | – | – | – | Glucagon IC50 (nM); PA = partial antagonist (glucagon receptor [5]): 130 nM
B2 | – | 85.2 | 84.1 | 72.8 | –
AEGTFTSEYSKYLDERRAKDFVQWLMDT (lactam 15-19) [[A2E3, E16K20(Lactam),D28]G(2~29) (Table 2 peptide 7)] | – | – | – | – | Glucagon IC50 (glucagon receptor [5]): 63 nM
F[Aib]EGTFTSD[Phe(4-NH2)]([Lys-C20 acyl])SIYLDKQAA[Aib]EFVNWLLAGGPSSGAPPPS-NH2 (also: acylated amino group of the Lys not given here) | – | 3.4 | 0.7 | 0.2 | –
B3 | 151 | – | – | – | Glucagon IC50 (glucagon receptor [5]): 10 to 30 nM
HSQGTFTSDYARYLDARRAREFIKWLVRGRG [ANK2 (Bayer peptide) (Table 2 peptide 9)] | 0.28 | – | – | – | –
[PhLac]TSDYSKYLDERRAQDFVEWLMKT (lactam 19-23) [[PLA6, D9, E16, E24K28(lactam)]G(6~29) (Table 2 peptide 4)] | 289 | – | – | – | Glucagon IC50 (glucagon receptor [5]): 22 nM
